# Experimental data as given in patent US20060252116A1, “Icam-4 binding sites” (priority 2002, published 2006).
# Test system: HT1080 cells (αv integrin)
# Assay: Adhesion of HT1080 cells to mutant human ICAM-4Fc
# Type: cell-based
# Conditions: FIG. 4; single residue mutants of human ICAM-4Fc, titrated coating concentration
# Experimental: Cell adhesion assays were performed as described in Spring et al. 2001 (supra). Immulon4 96 well plates (Dynex Technologies, Billingshurst, United Kingdom) were coated with 1 μg/well goat-antihuman-Fc (Sigma, Poole, United Kingdom) for 24 hours at 4° C., washed three times with PBS and coated with an Fc fusion ICAM-4 protein for 18 hours at 4° C. before blocking with 0.4% BSA PBS for 2 hours at 22° C. Cells were labelled with 10 μg/ml 2′,7′-bis-(2-carboxyethyl)-5-(and-6-) carboxyfluorescein acetoxymethyl ester in assay buffer (IMEM, 2 mM EGTA, 10 μg/ml human ivIgG) for 15 minutes at 37° C. HT1080 cells were activated with 80 μM phorbol myristate acetate prior to both cells being washed with assay buffer containing 2 mM Mn^2+. Cells, at 5×10^4 cells per well, were added to the ICAM-4Fc-coated plates for 30 minutes at 37° C., prior to being given repeated washes in assay buffer and read on a fluorescence microplate reader (excitation 485 nm, emission 530 nm). The percentage of bound cells was calculated after each wash. Peptide inhibition was performed by incubating the cells with 500 μM peptide at 0° C. for 15 minutes ahead of their addition, still in the presence of 500 μM peptide to the ICAM-4Fc coated plates. In peptide inhibition studies the appropriate ICAM-4Fc coating concentration for each cell line was pre-determined by titration of ICAM-4Fc and the lowest concentration at which maximal binding was achieved was used to coat the plates
# Point mutations were inserted into ICAM-4 in pIg vector (see Simmons D L, 1993, Cloning cell surface molecules by transient expression in mammalian cells, In: Hartley D A, ed. Cellular interactions in development. New York, N.Y.:IRL press, 93-127) by PCR amplification over two stages. Oligonucleotides (see “Mutagenesis primers” below) containing mismatched bases, together with 5′-[…] (SEQ ID NO: 14) and 3′-[…] (SEQ ID NO: 15) primers were used to generate two overlapping products. Following gel purification the two overlapping PCR products were annealed together before final amplification using the 5′ and 3′ primers. The final PCR product was restricted and ligated into pIg vector. All mutant clones were verified by sequence analysis. Mutant ICAM-4Fc proteins were expressed in COS-7 cells as described in Simmons D L (1993, supra), and purified from culture supernatant on protein A-Sepharose.
row,Molecule,adhesion of HT1080 cells to mutant ICAM-4Fc compared with wild-type
1,"F18A mutant: human ICAM-4Fc fusion protein with point mutation F18A (protein, left off: a dimerising Fc or GST, human ICAM-4Fc fusion protein with point mutation F18A) AQSPKGSPLAPSGTSVPAWVRMSPEFVAVQPGKSVQLNCSNSCPQPQNSSLRTPLRQGKTLRGPGWVSYQLLDVRAWSSLAHCLVTCAGKTRWATSRITAYKPPHSVILEPPVLKGRKYTLRCHVTQVFPVGYLVVTLRHGSRVIYSESLERFTGLDLANVTLTYEFAAGPRDFWQPVICHARLNLDGLVVRNSSAPITLMLAWSPAPTA",decrease in binding
2,"T95V mutant: human ICAM-4Fc fusion protein with point mutation T95V (protein, left off: a dimerising Fc or GST, human ICAM-4Fc fusion protein with point mutation T95V) AQSPKGSPLAPSGTSVPFWVRMSPEFVAVQPGKSVQLNCSNSCPQPQNSSLRTPLRQGKTLRGPGWVSYQLLDVRAWSSLAHCLVTCAGKTRWAVSRITAYKPPHSVILEPPVLKGRKYTLRCHVTQVFPVGYLVVTLRHGSRVIYSESLERFTGLDLANVTLTYEFAAGPRDFWQPVICHARLNLDGLVVRNSSAPITLMLAWSPAPTA",decrease in binding
3,"K118E mutant: human ICAM-4Fc fusion protein with point mutation K118E (protein, left off: a dimerising Fc or GST, human ICAM-4Fc fusion protein with point mutation K118E) AQSPKGSPLAPSGTSVPFWVRMSPEFVAVQPGKSVQLNCSNSCPQPQNSSLRTPLRQGKTLRGPGWVSYQLLDVRAWSSLAHCLVTCAGKTRWATSRITAYKPPHSVILEPPVLKGREYTLRCHVTQVFPVGYLVVTLRHGSRVIYSESLERFTGLDLANVTLTYEFAAGPRDFWQPVICHARLNLDGLVVRNSSAPITLMLAWSPAPTA",decrease the level of adhesion
4,"N160A mutant: human ICAM-4Fc fusion protein with point mutation N160A (protein, left off: a dimerising Fc or GST, human ICAM-4Fc fusion protein with point mutation N160A) AQSPKGSPLAPSGTSVPFWVRMSPEFVAVQPGKSVQLNCSNSCPQPQNSSLRTPLRQGKTLRGPGWVSYQLLDVRAWSSLAHCLVTCAGKTRWATSRITAYKPPHSVILEPPVLKGRKYTLRCHVTQVFPVGYLVVTLRHGSRVIYSESLERFTGLDLAAVTLTYEFAAGPRDFWQPVICHARLNLDGLVVRNSSAPITLMLAWSPAPTA",elevated level of adhesion
5,"T162V mutant: human ICAM-4Fc fusion protein with point mutation T162V (protein, left off: a dimerising Fc or GST, human ICAM-4Fc fusion protein with point mutation T162V) AQSPKGSPLAPSGTSVPFWVRMSPEFVAVQPGKSVQLNCSNSCPQPQNSSLRTPLRQGKTLRGPGWVSYQLLDVRAWSSLAHCLVTCAGKTRWATSRITAYKPPHSVILEPPVLKGRKYTLRCHVTQVFPVGYLVVTLRHGSRVIYSESLERFTGLDLANVVLTYEFAAGPRDFWQPVICHARLNLDGLVVRNSSAPITLMLAWSPAPTA",elevated level of adhesion
6,"W66A mutant: human ICAM-4Fc fusion protein with point mutation W66A (protein, left off: a dimerising Fc or GST, human ICAM-4Fc fusion protein with point mutation W66A) AQSPKGSPLAPSGTSVPFWVRMSPEFVAVQPGKSVQLNCSNSCPQPQNSSLRTPLRQGKTLRGPGAVSYQLLDVRAWSSLAHCLVTCAGKTRWATSRITAYKPPHSVILEPPVLKGRKYTLRCHVTQVFPVGYLVVTLRHGSRVIYSESLERFTGLDLANVTLTYEFAAGPRDFWQPVICHARLNLDGLVVRNSSAPITLMLAWSPAPTA",decrease the level of adhesion
7,"V20T mutant: human ICAM-4Fc fusion protein with point mutation V20T (protein, left off: a dimerising Fc or GST, human ICAM-4Fc fusion protein with point mutation V20T) AQSPKGSPLAPSGTSVPFWTRMSPEFVAVQPGKSVQLNCSNSCPQPQNSSLRTPLRQGKTLRGPGWVSYQLLDVRAWSSLAHCLVTCAGKTRWATSRITAYKPPHSVILEPPVLKGRKYTLRCHVTQVFPVGYLVVTLRHGSRVIYSESLERFTGLDLANVTLTYEFAAGPRDFWQPVICHARLNLDGLVVRNSSAPITLMLAWSPAPTA",decrease in binding
8,"A94L mutant: human ICAM-4Fc fusion protein with point mutation A94L (protein, left off: a dimerising Fc or GST, human ICAM-4Fc fusion protein with point mutation A94L) AQSPKGSPLAPSGTSVPFWVRMSPEFVAVQPGKSVQLNCSNSCPQPQNSSLRTPLRQGKTLRGPGWVSYQLLDVRAWSSLAHCLVTCAGKTRWLTSRITAYKPPHSVILEPPVLKGRKYTLRCHVTQVFPVGYLVVTLRHGSRVIYSESLERFTGLDLANVTLTYEFAAGPRDFWQPVICHARLNLDGLVVRNSSAPITLMLAWSPAPTA",decrease in binding
9,"S96A mutant: human ICAM-4Fc fusion protein with point mutation S96A (protein, left off: a dimerising Fc or GST, human ICAM-4Fc fusion protein with point mutation S96A) AQSPKGSPLAPSGTSVPFWVRMSPEFVAVQPGKSVQLNCSNSCPQPQNSSLRTPLRQGKTLRGPGWVSYQLLDVRAWSSLAHCLVTCAGKTRWATARITAYKPPHSVILEPPVLKGRKYTLRCHVTQVFPVGYLVVTLRHGSRVIYSESLERFTGLDLANVTLTYEFAAGPRDFWQPVICHARLNLDGLVVRNSSAPITLMLAWSPAPTA",decrease in binding
10,"R97E mutant: human ICAM-4Fc fusion protein with point mutation R97E (protein, left off: a dimerising Fc or GST, human ICAM-4Fc fusion protein with point mutation R97E) AQSPKGSPLAPSGTSVPFWVRMSPEFVAVQPGKSVQLNCSNSCPQPQNSSLRTPLRQGKTLRGPGWVSYQLLDVRAWSSLAHCLVTCAGKTRWATSEITAYKPPHSVILEPPVLKGRKYTLRCHVTQVFPVGYLVVTLRHGSRVIYSESLERFTGLDLANVTLTYEFAAGPRDFWQPVICHARLNLDGLVVRNSSAPITLMLAWSPAPTA",decrease in binding
11,"W19A mutant: human ICAM-4Fc fusion protein with point mutation W19A (protein, left off: a dimerising Fc or GST, human ICAM-4Fc fusion protein with point mutation W19A) AQSPKGSPLAPSGTSVPFAVRMSPEFVAVQPGKSVQLNCSNSCPQPQNSSLRTPLRQGKTLRGPGWVSYQLLDVRAWSSLAHCLVTCAGKTRWATSRITAYKPPHSVILEPPVLKGRKYTLRCHVTQVFPVGYLVVTLRHGSRVIYSESLERFTGLDLANVTLTYEFAAGPRDFWQPVICHARLNLDGLVVRNSSAPITLMLAWSPAPTA",decrease in binding
12,"R92E mutant: human ICAM-4Fc fusion protein with point mutation R92E (protein, left off: a dimerising Fc or GST, human ICAM-4Fc fusion protein with point mutation R92E) AQSPKGSPLAPSGTSVPFWVRMSPEFVAVQPGKSVQLNCSNSCPQPQNSSLRTPLRQGKTLRGPGWVSYQLLDVRAWSSLAHCLVTCAGKTEWATSRITAYKPPHSVILEPPVLKGRKYTLRCHVTQVFPVGYLVVTLRHGSRVIYSESLERFTGLDLANVTLTYEFAAGPRDFWQPVICHARLNLDGLVVRNSSAPITLMLAWSPAPTA",decrease in binding
